From US20260297135 (published 2026)

T1: integrin αvβ8 (human, UniProt P06756)
T1 chain 1: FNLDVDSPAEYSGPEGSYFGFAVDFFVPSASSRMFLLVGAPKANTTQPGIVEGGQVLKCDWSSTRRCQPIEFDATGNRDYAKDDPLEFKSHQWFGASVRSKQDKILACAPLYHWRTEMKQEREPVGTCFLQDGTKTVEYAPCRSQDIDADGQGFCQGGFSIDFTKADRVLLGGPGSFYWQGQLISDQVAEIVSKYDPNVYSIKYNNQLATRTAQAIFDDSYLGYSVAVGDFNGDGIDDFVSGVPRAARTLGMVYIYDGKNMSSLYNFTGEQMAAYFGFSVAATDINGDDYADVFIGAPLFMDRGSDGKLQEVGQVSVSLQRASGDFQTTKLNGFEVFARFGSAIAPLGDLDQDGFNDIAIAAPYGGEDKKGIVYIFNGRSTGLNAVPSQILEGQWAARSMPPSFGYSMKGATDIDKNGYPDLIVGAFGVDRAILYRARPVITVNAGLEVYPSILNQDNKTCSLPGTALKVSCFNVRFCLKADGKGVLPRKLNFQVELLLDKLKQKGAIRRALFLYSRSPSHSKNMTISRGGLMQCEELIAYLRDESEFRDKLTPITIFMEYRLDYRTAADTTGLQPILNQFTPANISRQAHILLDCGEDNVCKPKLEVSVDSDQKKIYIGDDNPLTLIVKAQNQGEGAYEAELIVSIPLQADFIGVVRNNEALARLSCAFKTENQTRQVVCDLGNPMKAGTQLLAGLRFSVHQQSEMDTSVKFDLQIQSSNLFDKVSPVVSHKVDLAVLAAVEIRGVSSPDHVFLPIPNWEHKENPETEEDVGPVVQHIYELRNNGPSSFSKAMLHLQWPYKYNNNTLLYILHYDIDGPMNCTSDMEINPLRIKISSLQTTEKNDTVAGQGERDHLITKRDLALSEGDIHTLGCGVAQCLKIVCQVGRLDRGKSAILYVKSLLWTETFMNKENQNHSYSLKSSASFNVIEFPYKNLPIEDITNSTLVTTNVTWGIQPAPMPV
T1 chain 2: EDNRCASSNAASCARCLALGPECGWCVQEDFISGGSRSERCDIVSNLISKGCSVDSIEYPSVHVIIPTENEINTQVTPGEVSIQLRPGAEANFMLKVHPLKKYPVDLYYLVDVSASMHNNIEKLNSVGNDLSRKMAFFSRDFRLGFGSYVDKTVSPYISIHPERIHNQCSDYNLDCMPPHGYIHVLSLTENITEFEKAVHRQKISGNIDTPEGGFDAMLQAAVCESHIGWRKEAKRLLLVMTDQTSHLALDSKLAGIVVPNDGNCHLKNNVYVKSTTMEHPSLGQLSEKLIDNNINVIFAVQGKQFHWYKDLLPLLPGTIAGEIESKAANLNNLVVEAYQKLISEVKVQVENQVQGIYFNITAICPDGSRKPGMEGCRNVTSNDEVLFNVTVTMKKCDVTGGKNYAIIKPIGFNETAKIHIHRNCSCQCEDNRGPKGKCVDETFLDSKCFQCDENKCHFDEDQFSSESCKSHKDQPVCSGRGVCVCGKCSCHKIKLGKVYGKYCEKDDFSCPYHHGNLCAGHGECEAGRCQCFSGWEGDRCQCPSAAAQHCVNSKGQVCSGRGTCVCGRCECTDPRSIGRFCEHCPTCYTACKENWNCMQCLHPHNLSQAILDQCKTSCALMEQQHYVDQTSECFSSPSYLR

T2: integrin αvβ6 (human, UniProt P06756)
T2 chain 1: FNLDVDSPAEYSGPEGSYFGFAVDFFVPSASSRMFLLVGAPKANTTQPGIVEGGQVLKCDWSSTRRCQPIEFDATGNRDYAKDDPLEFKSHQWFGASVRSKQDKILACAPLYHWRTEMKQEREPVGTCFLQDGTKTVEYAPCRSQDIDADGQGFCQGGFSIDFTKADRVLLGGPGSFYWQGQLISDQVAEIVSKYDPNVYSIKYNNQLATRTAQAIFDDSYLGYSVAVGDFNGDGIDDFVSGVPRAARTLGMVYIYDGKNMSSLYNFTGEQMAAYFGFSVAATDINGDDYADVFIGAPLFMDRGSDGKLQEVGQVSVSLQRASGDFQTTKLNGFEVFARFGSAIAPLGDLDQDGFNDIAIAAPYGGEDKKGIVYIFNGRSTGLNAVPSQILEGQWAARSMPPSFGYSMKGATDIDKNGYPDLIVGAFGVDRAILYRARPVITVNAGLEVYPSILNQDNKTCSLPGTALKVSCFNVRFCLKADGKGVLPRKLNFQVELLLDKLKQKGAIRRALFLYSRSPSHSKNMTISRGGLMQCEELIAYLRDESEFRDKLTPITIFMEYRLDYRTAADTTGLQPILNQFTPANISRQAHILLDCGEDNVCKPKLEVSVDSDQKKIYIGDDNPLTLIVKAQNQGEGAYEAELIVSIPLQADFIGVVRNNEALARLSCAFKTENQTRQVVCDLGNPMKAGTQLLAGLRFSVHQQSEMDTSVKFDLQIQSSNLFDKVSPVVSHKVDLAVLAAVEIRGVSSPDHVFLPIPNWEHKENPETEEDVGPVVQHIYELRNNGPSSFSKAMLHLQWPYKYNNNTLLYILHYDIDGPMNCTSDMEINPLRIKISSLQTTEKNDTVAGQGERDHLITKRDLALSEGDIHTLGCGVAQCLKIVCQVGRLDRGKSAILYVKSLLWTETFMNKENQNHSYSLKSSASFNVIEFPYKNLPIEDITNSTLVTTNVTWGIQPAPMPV
T2 chain 2: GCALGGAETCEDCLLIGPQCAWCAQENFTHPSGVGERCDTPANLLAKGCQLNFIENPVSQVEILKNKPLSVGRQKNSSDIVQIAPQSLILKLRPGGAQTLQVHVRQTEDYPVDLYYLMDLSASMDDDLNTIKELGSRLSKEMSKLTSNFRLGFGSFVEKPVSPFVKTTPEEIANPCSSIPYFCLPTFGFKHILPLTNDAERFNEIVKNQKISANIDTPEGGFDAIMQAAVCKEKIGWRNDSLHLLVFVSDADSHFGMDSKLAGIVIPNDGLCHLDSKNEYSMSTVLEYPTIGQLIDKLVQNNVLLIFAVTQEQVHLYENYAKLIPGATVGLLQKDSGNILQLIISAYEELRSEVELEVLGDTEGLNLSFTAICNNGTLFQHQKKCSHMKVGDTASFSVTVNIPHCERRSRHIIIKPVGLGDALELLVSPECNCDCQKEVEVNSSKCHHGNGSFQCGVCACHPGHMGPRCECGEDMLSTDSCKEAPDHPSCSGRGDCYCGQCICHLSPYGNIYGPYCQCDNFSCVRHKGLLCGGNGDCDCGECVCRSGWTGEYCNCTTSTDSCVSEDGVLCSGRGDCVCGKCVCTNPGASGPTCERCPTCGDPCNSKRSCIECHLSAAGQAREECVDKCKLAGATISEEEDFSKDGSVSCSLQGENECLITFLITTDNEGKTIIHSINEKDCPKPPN


Tests used:
[1] = molecular target: T1, integrin αvβ8; assay: BLI
[2] = molecular target: T2, integrin αvβ6; assay: BLI, at 500 nM
[3] = molecular target: T2, integrin αvβ6; assay: competition, hLAP1
[4] = molecular target: T1, integrin αvβ8; assay: competition, hLAP1
[5] = molecular target: T2, integrin αvβ6; assay: BLI

Kd [1]	binding result [2]	binding result [3]	IC50 [4]	Kd [5]	Binder
0.5 nM	no binding	–	–	–	B8_BP-LATY (avb8_3_LATY) (designed binder) TKCVVRFNFRGDLATYALKAVKDHLKKEGPHWNITTHNDDEVYLVVRGIHESDAKRIAKWVESTIPGISVETQCD
1.9 nM	–	no binding	2.68 nM	–	B8_BP_dslf (avb8_3) (designed binder) TKCVVRFNFRGDMAVYALKAVKDHLKKEGPHWNITTHNDDEVYLVVRGIHESDAKRIAKWVESTIPGISVETQCD
–	–	–	–	1.13 nM	avb8_12 (LATI) (designed binder) TKCVVRFNFRGDLATIALKAVKDHLKKEGPHWNITTHNDDEVYLVVRGIHESDAKRIAKWVESTIPGISVETQCD
